We go through 10 molecules from patent US11560566B2, “Aptazyme-embedded guide RNAs for use with CRISPR-Cas9 in genome editing and transcriptional activation” (President and Fellows of Harvard College, priority 2017, dated 2023).

Data set [1] has as its system GFP gene (modified promoter) in HEK293T cells. Put plainly: Transcriptional activation of GFP reporter with dCas9-VPR in HEK293T cells. The format is cell-based, human. The source says: In addition to genome editing, transcriptional regulation is another widely used application of CRISPR-Cas9^4. To further explore the utility of agRNAs, we sought to develop an agRNA that responds to a different small-molecule ligand and activates the expression of a guide RNA-specified target gene, rather than editing a target gene through DNA cleavage. A previously reported guanine-aptazyme^24 that contains a naturally occurring guanine aptamer^25 was incorporated into the guide RNA and the resulting guanine-agRNA was tested for its ability to activate transcription of a GFP gene in HEK293T cells (FIG. 3c). […] In the presence of an active guide RNA, dCas9-VPR initiates transcription of GFP, ultimately resulting in cell fluorescence.
(§1) To each well in a 48-well plate, 200 ng of dCas9-VPR plasmid, 0.5 ng of guide RNA plasmid and 60 ng of reporter plasmid were transfected using 1.2 μL Lipofectamine 2000. […] Cells were harvested 20 h after transfection.

A further data set concerns FANCF site. Put plainly: Theophylline-dependent base editing (BE3), FANCF site. The format is cell-based, human. The following applies: ligand concentration 4 mM. An excerpt: Cells were harvested 3 days after transfection.
In data set [2] the test system is target dsDNA (full GFP gene). Kind of data set: In vitro DNA cleavage assay (Cas9 + guide RNA). The format is biochemical. The following applies: 10 nM target DNA, 100 nM guide RNA, 100 nM Cas9, 37° C.; for target DNA cleavage followed by gel electrophoresis: 1 h for sgRNA variants, 5 h for crRNA and tracrRNA variants. On the procedure: The blocker-linked guide RNAs were prepared by in vitro transcription and incubated in vitro with Cas9 protein and a target dsDNA. Target DNA cleavage was followed by gel electrophoresis (FIG. 1b).
SpCas9 protein was purified as previously described^1,35. Guide RNAs were transcribed using a T7 High Yield RNA Synthesis Kit (NEB) following the manufacturer's protocol, and purified with the E.Z.N.A. PF miRNA Isolation Kit (Omega Bio-tek, Inc.). The target dsDNA (full GFP gene) was amplified by polymerase chain reaction and purified using QlAquick PCR Purification Kit (QIAGEN). For the cleavage reaction, 10 nM of the target DNA was incubated with 100 nM of the guide RNA in the presence of 100 nM Cas9 protein in a Cas9 DNA cleavage buffer (150 mM KCl, 10 mM MgCl2, 0.5 mM DTT, 0.1 mM EDTA, 20 mM HEPES pH 7.5). In vitro editing reactions were incubated at 37° C. for 1 h for sgRNA and its variants and the reactions for crRNA and tracrRNA and their variants were incubated at 37° C. for 5 h before being stopped with 6×DNA loading buffer and analyzed by non-denaturing agarose gel electrophoresis.

The test system of data set [3] is endogenous GFP locus in HEK293-GFP cells. The source says:
To compare the activities of the guide RNAs with the blocking region either present or removed, a non-cleaving “dead” variant of HHR-bsgRNA (dHHR-bsgRNA) containing a single A to G point mutation in the catalytic loop of the hammerhead ribozyme was produced. To optimize the restoration of guide RNA activity by self-cleavage of the hammerhead ribozyme, the length of the blocking sequence was varied. Three sets of HHR-bsgRNAs and dHHR-bsgRNAs with blocking sequences of 10 to 17 nucleotides were constructed. The genome editing activities of these sgRNA variants in the presence of Cas9 in human embryonic kidney cells harboring genomic GFP genes (HEK293-GFP) were assayed by targeting the endogenous GFP locus (FIG. 2a).
HEK293 cells with integrated GFP genes (GenTarget Inc.) were cultured in 48-well plates (40,000 cells seeded per well) in Dulbecco's Modified Eagle's Media plus GlutaMAX (DMEM, Life Technologies) with 10% FBS. Plasmids were transfected ˜20 h after plating when cells reached ˜70% confluence. To edit the GFP genes in HEK293 cells, 100 ng of Cas9 plasmid and 2 ng of guide RNA plasmid were transfected in each well using 1.2 μL Lipofectamine 2000 (Life Technologies) following the manufacturer's protocol. To distinguish transfected cells from non-transfected cells, 2 ng of an iRFP expression plasmid was co-transfected. A stock solution of 100 mM theophylline was made in 60 mM NaOH and was supplied to cells 6 h after plasmid transfection at designed concentrations. The cells were incubated for additional 7 days before analysis and media was changed at day 3, 5 and 6. Fresh theophylline was supplied immediately at the same concentration as in the initial condition each time the media was changed. GFP fluorescence was quantified by flow cytometry and the transfected live population was gated by iRFP signal.

Data set [4] concerns RFP reporter in HEK293T cells. Put plainly: Transcriptional activation of RFP reporter with dCas9-VPR in HEK293T cells. It is filed as cell-based, human. To be noted: different spacer sequence. On the procedure: To further generalize this strategy, we tested the guanine-agRNA with three bulges for RFP activation in HEK293T cells with a different spacer sequence that is unrelated to the spacer used to target GFP.
as §1

For `Nc1nc2nc[nH]c2c(=O)[nH]1` [guanine, reference compound], the “effect of guanine on GFP fluorescence” value in data set [1] (guanine in the medium from 0 to 200 μM, cells with (d) guanine-agRNA) is given as “slightly reduced GFP fluorescence”.
Regarding `Cn1c(=O)[nH]c(=O)c2[nH]cnc21` [3-methylxanthine], in the data set on FANCF site, the “response of theophylline-agRNA-mediated base editing to ligand, fold less strongly than to theophylline” value was determined as 2 fold.

B1: 5′ spacer-blocked sgRNA: sgRNA with 42-nucleotide linker and 6-nucleotide blocking sequence complementary to the spacer at the 5′ end (nucleic acid)
guide: GGUGCCCGUAGUAGUAGUAGCAACCACGUCGCGUCCGUAGUAGUAGUAGGGCACGGGCAGCUUGCCGGGUUUUAGAGCUAGAAAUAGCAAGUUAAAAUAAGGCUAGUCCGUUAUCAACUUGAAAAAGUGGCACCGAGUCGGUGCUUUUUUU
As to B1, the “target DNA cleavage followed by gel electrophoresis” value (shortened to “target DNA cleavage followed”) in data set [2] was “no cleavage product could be detected”.

B2: blocked crRNA: crRNA with 42-nucleotide linker and 10-nucleotide blocking sequence appended to the 3′ end (nucleic acid)
guide: GGGCACGGGCAGCUUGCCGGGUUUUAGAGCUAUGCUGUUUUGGAUGGCAACCACGUCGCGUCCUGUAGUAGUAUGAUAGCUCUAA
modifications: unmodified RNA
As for B2, the “target DNA cleavage followed” value in data set [2] is “partial cleavage of the target DNA”.

B3: canonical sgRNA: canonical Streptococcus pyogenes single guide RNA targeting GFP, positive control (nucleic acid)
guide: GGGCACGGGCAGCUUGCCGGGUUUUAGAGCUAGAAAUAGCAAGUUAAAAUAAGGCUAGUCCGUUAUCAACUUGAAAAAGUGGCACCGAGUCGGUGCUUUUUUU
modifications: chemistry not given here
notes: canonical Streptococcus pyogenes single guide RNA targeting GFP, positive control
For B3, the “activity relative to that of the activated agRNA” value in data set [3] (loss beyond the off-state, 62% vs 48%) was found to be 1.3 fold. Further, the “loss beyond the off-state” value in data set [3] (wild-type Cas9) turned out to be 62%. This molecule also showed a GFP loss in data set [3] (wild-type Cas9, canonical guide, positive control) of 72%. Also, in data set [2] (1 h), the cleavage efficiency is about 100%.

B4: blocked tracrRNA: tracrRNA with 42-nucleotide linker and 10-nucleotide blocking sequence appended to the 5′ end (nucleic acid)
chain: GGAUUUUAACUUUAGUAGUAGUAGGCAACCACGUCGCGUCCUAGUAGGCAUAGCAAGUUAAAAUAAGGCUAGUCCGUUAUCAACUUGAAAAAGUGGCACCGAGUCGGUGCUUUUUUU
modifications: unmodified RNA
With B4, the “target DNA cleavage followed” value in data set [2] was “partial cleavage of the target DNA”.

B5: guanine-agRNA with three bulges: guanine-agRNA with bulged blocker and a different spacer for RFP activation (nucleic acid)
guide: ACUGCGGGAUGGAGGAGACGGUACAUCCAGCUGAUGAGUCCCAAAUAGGACGAAAUACUAUAAUCGCGUGGAUAUGGCACGCAAGUUUCUACCGGGCACCGUAAAUGUCCGACUAGUGUCCUGGAUUCCACGUCCCCUCCACCCCACAGUGGUUUUAGAGCUAGAAAUAGCAAGUUAAAAUAAGGCUAGUCCGUUAUCAACUUGAAAAAGUGGCACCGAGUCGGUGCUUUUUUU
As for B5, the “guanine-dependent RFP activation ratio” value in data set [4] is on record as about 3 fold.

B6: guanine-agRNA: guanine-aptazyme-embedded guide RNA for GFP activation (nucleic acid)
guide: GCAAGCUGCCCGUGCCCGGUACAUCCAGCUGAUGAGUCCCAAAUAGGACGAAAUACUAUAAUCGCGUGGAUAUGGCACGCAAGUUUCUACCGGGCACCGUAAAUGUCCGACUAGUGUCCUGGAUUCCACGGGCACGGGCAGCUUGCCGGGUUUUAGAGCUAGAAAUAGCAAGUUAAAAUAAGGCUAGUCCGUUAUCAACUUGAAAAAGUGGCACCGAGUCGGUGCUUUUUUU
On to B6, for which the “off-state activity (GFP fluorescence)” value in data set [1] (absence of guanine, compared to control cells lacking any guide RNA) is listed as “elevated GFP fluorescence”. The “activation of GFP fluorescence” value in data set [1] (guanine added to media at 50 μM) came to 5 fold.

B7: (d) guanine-agRNA: non-splicing mutant of guanine-agRNA (nucleic acid)
chain: GCAAGCUGCCCGUGCCCGGUACAUCCAGCUGAUGAGUCCCAAAUAGGACGAGAUACUAUAAUCGCGUGGAUAUGGCACGCAAGUUUCUACCGGGCACCGUAAAUGUCCGACUAGUGUCCUGGAUUCCACGGGCACGGGCAGCUUGCCGGGUUUUAGAGCUAGAAAUAGCAAGUUAAAAUAAGGCUAGUCCGUUAUCAACUUGAAAAAGUGGCACCGAGUCGGUGCUUUUUUU
As for B7, in data set [1] (guanine 50 μM (dHHR-bsgRNA) or different concentrations ((d) guanine-agRNA), dCas9-VPR), the “GFP activation by guanine” value is given as “only a low level of GFP expression that could no longer be activated by guanine”.

B8: post-cleavage sgRNA: processed HHR-bsgRNA without the blocking sequence, 11 extra nucleotides at the 5′ end (nucleic acid)
guide: GCUGGAUUCCACGGGCACGGGCAGCUUGCCGGGUUUUAGAGCUAGAAAUAGCAAGUUAAAAUAAGGCUAGUCCGUUAUCAACUUGAAAAAGUGGCACCGAGUCGGUGCUUUUUUU
modifications: chemistry not given here
With B8, in data set [3] (HEK293-GFP cells, Cas9, sgRNA with 11 extra nucleotides at the 5′ end), the “activity compared to the unmodified guide RNA” value is “maintained most of its activity”.
